± gives the standard deviation of the averaged measurements.
tested on: ATP; assay: switch fluorescence ratio, 500 uM ATP over buffer (Cy3 cluster intensity, sum of 5 cycles each) (fold (ratio)); higher = stronger signal-on switching upon ATP binding; sequences stand for … in TCGTCGGCAGCGTCAGATGTGTATAAGAGACAGTTTTTTTTTTTTTTTTTTTTTTTTT…TC; conditions: aptamer strand: ATP DNA aptamer (quencher-CACCTGGGGGAGTATTGCGGAGGAAGG + anchor), 100 nM annealed; ATP concentration: 500 uM
In short: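 Between each of five buffer/ATP cycles, the flow-cell was stripped with NaOH and re-annealed. Each cycle imaged Cy3-labelled switching-strand clusters, annealed to 100 nM quencher-labelled ATP aptamer on a modified Illumina MiSeq flow-cell, first in selection buffer and then after 15 min with 500 uM ATP at 22 °C. The fluorescence ratio is summed target-cycle over summed buffer-cycle Cy3 intensity per cluster, averaged per switch-domain sequence, with clusters outside 100-1000 RFU excluded.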
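Note: ATP exposure 15 min at 22 °C before imaging.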

Sequence | switch fluorescence ratio
AATATAGAGA | 1.01 ± 0.011
TTTCGCAACG | 1.09 ± 0.047
AGCAGAGAAA | 0.982 ± 0.046
TGGTTGTCCG | 1.06 ± 0.059
GAGAGTGTGT | 0.982 ± 0.011
AAGGAAAATT | 0.973 ± 0.02
GGTCCATTTT | 0.969 ± 0.017
GGGGGAGGTG | 1.03 ± 0.048
ACAAATGGGA | 1.02 ± 0.044
GGGGATATGG | 1.01 ± 0.039
CGGGTTACGG | 0.9728 ± 0.0055
GTAATGAGGT | 1.01 ± 0.024
ATATGCGGGG | 0.949 ± 0.011
ATGAATGCGG | 0.99 ± 0.0094
ACTGGCATTG | 1.02 ± 0.044
CGCTAAAGTG | 1.06 ± 0.086
TTTCCTTGTT | 1.09 ± 0.057
GTTTGTGTTG | 0.993 ± 0.017
TTTCAAGTTT | 1.16 ± 0.3
TCGTAAGGGT | 1.18 ± 0.26
AGGTGGGGGG | 1.01 ± 0.043
GGAAAAATTG | 1.02 ± 0.021
ATTGAAGGGT | 0.981 ± 0.034
TCAAAGCGTT | 0.986 ± 0.031
GTCGAAAGGG | 1.01 ± 0.05
GTAACGTAAG | 1.03 ± 0.034

Sequence | switch fluorescence ratio
GTCGGACCCG | 0.973 ± 0.019
GGTATTGAAG | 0.999 ± 0.024
AAATTAATTT | 1.02 ± 0.043
GAATTAGGTT | 1.01 ± 0.077
GCCAGAGCGA | 1.27 ± 0.0013
GAGTTTGGGC | 1.01 ± 0.039
GTGGTTCTGG | 1.01 ± 0.018
TACGATGGTT | 0.989 ± 0.028
TAACAGCTGT | 1.04 ± 0.041
GGTTGGAAAA | 1.0226 ± 0.00079
AAGTATTGTT | 1 ± 0.019
AAACCGTT | 1.04 ± 0.024
GAACCGCGTA | 1.11 ± 0.036
GGGGATTTGC | 0.969 ± 0.023
CGACCATAGA | 1.07 ± 0.045
TACGGAGTCT | 0.9814 ± 0.0075
TTGTCGCTGT | 1.14 ± 0.19
CCATGGTAGT | 1.028 ± 0.0029
TTCGTGGAAT | 0.977 ± 0.028
TGATATTTGC | 0.969 ± 0.033
GGTTTCTCGG | 1.019 ± 0.0092
TTAATTATTT | 0.998 ± 0.029
CCACGTGGGC | 1.07 ± 0.14
CCAGTTAGCC | 1.04 ± 0.13
GATAAAAGGA | 1.002 ± 0.0063
AAACACGACT | 1.07 ± 0.011

Sequence | switch fluorescence ratio
TTTTTAGGAC | 0.997 ± 0.014
ATGTGAGATA | 1.02 ± 0.015
TTTTTCGGGC | 1.08 ± 0.24
TTAAGCCCGG | 1.04 ± 0.066
TCTGGTTGGG | 1.04 ± 0.064
AGGAGAGGAG | 1.02 ± 0.038
TTCATAATA | 1.024 ± 0.0029
CGTTTCGTCT | 1.05 ± 0.024
CAGGGGCGGC | 0.923 ± 0.064
ACCAGGGGTT | 1.19 ± 0.027
TTTCTTACGC | 1.07 ± 0.066
TGTGGCTTCC | 2.25 ± 0.099
CGGAAGATAT | 1.039 ± 0.00018
AATTTGTGTG | 0.99 ± 0.034
CCTGCGTAAG | 2.29 ± 0.11
AATTTATTGT | 1.003 ± 0.0013
GCGCGGTGTT | 0.988 ± 0.026
ATCTGGGGAA | 1.01 ± 0.045
GCATTAATCG | 1.01 ± 0.025
TGGGGATGAT | 1 ± 0.022
GAAAGTTCAG | 1.002 ± 0.0098
GGATTTGGG | 0.964 ± 0.014
CGGATAGTGG | 0.994 ± 0.014
AAGCGGCGGG | 1.01 ± 0.019
GTTAAAGGGC | 1.03 ± 0.034
GATGAAAGGG | 1.22 ± 0.46

Sequence | switch fluorescence ratio
TTTGGTTGTT | 0.988 ± 0.019
ATACTTTGCT | 1 ± 0.034
TCCCAAAGGG | 1.63 ± 0.91
CGGGGAGGCA | 0.997 ± 0.031
AAAATACGCT | 1.16 ± 0.17
TAAGGGGGCA | 1.01 ± 0.052
GCAGCCCCTG | 1.02 ± 0.048
AATGAATGGG | 0.981 ± 0.018
ATAAAAAAGC | 1.02 ± 0.074
TACGGGGGTC | 1.02 ± 0.047
TTATGACTCA | 1.01 ± 0.03
TGGGATTGAA | 0.9806 ± 0.0079
AAGGTCACGC | 1.01 ± 0.024
TTGCAAGAAT | 1.023 ± 0.0021
GCGTTTTCGA | 1 ± 0.021
TGTGTCAGGG | 1.01 ± 0.022
AGAGGATGGG | 1 ± 0.034
AGGGTAAGGT | 1.04 ± 0.082
GCTTCTACTG | 0.988 ± 0.034
TATTTCGGGT | 1.01 ± 0.068
AAAGACAGTT | 1.01 ± 0.049
TCAAGGTGGG | 0.998 ± 0.021
GCAGGTTTTG | 0.987 ± 0.04
CGTGTATTCG | 1.01 ± 0.031
AAACTGTTTG | 0.996 ± 0.024
GTGAGGGGCT | 0.977 ± 0.04

Sequence | switch fluorescence ratio
GTATATATAG | 1.02 ± 0.03
AGATAGTTGT | 1.01 ± 0.016
ACTTATCATT | 1.04 ± 0.013
TAAATATTTT | 1.08 ± 0.14
CATCTCATAT | 1.02 ± 0.028
GTCTGATTTA | 1.01 ± 0.011
CGGTCGGGTA | 1.01 ± 0.031
AGATTTTTTA | 0.954 ± 0.016
ATTAATTTCT | 1 ± 0.024
TTAGTAGAGT | 1 ± 0.013
AACTTAATG | 0.9926 ± 0.0025
TGGGTGCGTC | 0.988 ± 0.014
TTTTGATATC | 0.997 ± 0.012
GCTTGGGTAT | 1.02 ± 0.062
CGGCTGGGGC | 1.02 ± 0.015
TAGAATCGCT | 1 ± 0.049
GAACCACGA | 1.05 ± 0.019
TTGCCGGGAG | 1.02 ± 0.066
GAAAGGTCTA | 0.987 ± 0.057
GGTTATGTTG | 0.977 ± 0.047
TGGTTGGGGG | 0.995 ± 0.024
ATACTGACAT | 1.2 ± 0.053
ACGATCTGTG | 1.03 ± 0.033
TTTTTTTTTG | 0.987 ± 0.025
GAACATGTAT | 0.987 ± 0.026
TTGTAATTAC | 1.3 ± 0.44

Sequence | switch fluorescence ratio
TATTTTATTT | 1 ± 0.018
TGGTAATGGA | 0.958 ± 0.046
CTATCGATAG | 0.993 ± 0.035
GGGTTAAAGT | 0.994 ± 0.022
AGACCTAGAC | 1.05 ± 0.025
GGTGGGATTA | 1.014 ± 0.009
GCCCCTGTTT | 1 ± 0.023
GGTTGTGGCT | 0.9883 ± 0.0059
GAGGGCATCA | 0.99 ± 0.015
CGAGAGTTTT | 0.985 ± 0.032
GAGCTAGTGT | 0.9792 ± 0.0081
ACCGTTCTGA | 1.016 ± 0.0092
TGCGGGTTTT | 1.02 ± 0.016
GAGCTTGCGT | 1.01 ± 0.025
CCGAAAATGA | 1.35 ± 0.49
CAAGTGGTTG | 0.984 ± 0.025
GAAGGAGCGG | 0.982 ± 0.023
TTTGTCTTC | 0.95 ± 0.015
CTTTGGGGGC | 0.9593 ± 0.0087
TGTTCCGTCT | 0.9732 ± 0.0095
TTCCGGGTGA | 1.23 ± 0.31
AAAGGTGTAT | 1.02 ± 0.014
AGTGGAGGTG | 1.03 ± 0.043
GATTGGGCCA | 0.996 ± 0.017
AGTTTGTGTG | 0.977 ± 0.014

From the supplement of paper PMC10126150
